Measurements taken from patent US20180371100A1 (Kyowa Kirin, published 2018).
Where “and” joins values, the source holds several entries; their conditions need not be identical. Identical values can stand only once.

B1: humanized Lym2 antibody LV0HV0 (antibody, V domains shown)
VH: EVQLVESGGGVVQPGRSLRLSCAASGFTFSNYYMAWVRQAPGKGLEWVATISYDGSSTYYRDSVKGRFTISRDNAKNSLYLQMNSLRAEDTAVYYCARHRGYYYSGAGYFDYWGQGTMVTVSS
VL: DIVMTQTPLSLPVTPGESASISCRSSQSLEYSDGYTYLEWYLQKPGQSPQVLIYGVSNRFSGVPDRFSGSGSGTDFTLKISRVEAEDVGVYYCFQATHDPLTFGQGTKLEIK
B2: humanized Lym2 antibody LV3aHV4 (antibody, V domains shown)
VH: EVQLVESGGGVVQPGRSMRLSCAASGFTFSNYYMAWVRQAPGKGLEWVATISYDGSSTYYRDSVKGRFTISRDNAKSSLYLQMNSLRAEDTATYYCARHRGYYYSGAGYFDYWGQGVMVTVSS
VL: DVVLTQTPLSLPVTPGESASISCRSSQSLEYSDGYTYLEWYLQKPGQSPQVLIYGVSNRFSGVPDRFSGSGSGTDFTLKISRVEPEDVGVYYCFQATHDPLTFGQGTKLEIK
B3: humanized Lym2 antibody LV0HV4 (antibody, V domains shown)
VH: EVQLVESGGGVVQPGRSMRLSCAASGFTFSNYYMAWVRQAPGKGLEWVATISYDGSSTYYRDSVKGRFTISRDNAKSSLYLQMNSLRAEDTATYYCARHRGYYYSGAGYFDYWGQGVMVTVSS
VL: DIVMTQTPLSLPVTPGESASISCRSSQSLEYSDGYTYLEWYLQKPGQSPQVLIYGVSNRFSGVPDRFSGSGSGTDFTLKISRVEAEDVGVYYCFQATHDPLTFGQGTKLEIK
B4: humanized Lym2 antibody LV1HV4 (antibody, V domains shown)
VH: EVQLVESGGGVVQPGRSMRLSCAASGFTFSNYYMAWVRQAPGKGLEWVATISYDGSSTYYRDSVKGRFTISRDNAKSSLYLQMNSLRAEDTATYYCARHRGYYYSGAGYFDYWGQGVMVTVSS
VL: DIVMTQTPLSLPVTLGESASISCRSSQSLEYSDGYTYLEWYLQKPGQSPQVLIYGVSNRFSGVPDRFSGSGSGTDFTLKISRVEAEDVGVYYCFQATHDPLTFGQGTKLEIK
B5: humanized Lym2 antibody LV0HV2b (antibody, V domains shown)
VH: EVQLVESGGGVVQPGRSMRLSCAASGFTFSNYYMAWVRQAPGKGLEWVATISYDGSSTYYRDSVKGRFTISRDNAKNSLYLQMNSLRAEDTAVYYCARHRGYYYSGAGYFDYWGQGVMVTVSS
VL: DIVMTQTPLSLPVTPGESASISCRSSQSLEYSDGYTYLEWYLQKPGQSPQVLIYGVSNRFSGVPDRFSGSGSGTDFTLKISRVEAEDVGVYYCFQATHDPLTFGQGTKLEIK
B6: humanized Lym2 antibody LV0HV3 (antibody, V domains shown)
VH: EVQLVESGGGVVQPGRSMRLSCAASGFTFSNYYMAWVRQAPGKGLEWVATISYDGSSTYYRDSVKGRFTISRDNAKNSLYLQMNSLRAEDTATYYCARHRGYYYSGAGYFDYWGQGVMVTVSS
VL: DIVMTQTPLSLPVTPGESASISCRSSQSLEYSDGYTYLEWYLQKPGQSPQVLIYGVSNRFSGVPDRFSGSGSGTDFTLKISRVEAEDVGVYYCFQATHDPLTFGQGTKLEIK
B7: humanized Lym2 antibody LV0HV2a (antibody, V domains shown)
VH: EVQLVESGGGVVQPGRSLRLSCAASGFTFSNYYMAWVRQAPGKGLEWVATISYDGSSTYYRDSVKGRFTISRDNAKNSLYLQMNSLRAEDTATYYCARHRGYYYSGAGYFDYWGQGVMVTVSS
VL: DIVMTQTPLSLPVTPGESASISCRSSQSLEYSDGYTYLEWYLQKPGQSPQVLIYGVSNRFSGVPDRFSGSGSGTDFTLKISRVEAEDVGVYYCFQATHDPLTFGQGTKLEIK
B8: humanized Lym2 antibody LV2bHV4 (antibody, V domains shown)
VH: EVQLVESGGGVVQPGRSMRLSCAASGFTFSNYYMAWVRQAPGKGLEWVATISYDGSSTYYRDSVKGRFTISRDNAKSSLYLQMNSLRAEDTATYYCARHRGYYYSGAGYFDYWGQGVMVTVSS
VL: DIVMTQTPLSLPVTLGESASISCRSSQSLEYSDGYTYLEWYLQKPGQSPQVLIYGVSNRFSGVPDRFSGSGSGTDFTLKISRVEPEDVGVYYCFQATHDPLTFGQGTKLEIK
B9: humanized Lym2 antibody LV2aHV4 (antibody, V domains shown)
VH: EVQLVESGGGVVQPGRSMRLSCAASGFTFSNYYMAWVRQAPGKGLEWVATISYDGSSTYYRDSVKGRFTISRDNAKSSLYLQMNSLRAEDTATYYCARHRGYYYSGAGYFDYWGQGVMVTVSS
VL: DIVLTQTPLSLPVTLGESASISCRSSQSLEYSDGYTYLEWYLQKPGQSPQVLIYGVSNRFSGVPDRFSGSGSGTDFTLKISRVEAEDVGVYYCFQATHDPLTFGQGTKLEIK
B10: humanized Lym2 antibody LV3bHV0 (antibody, V domains shown)
VH: EVQLVESGGGVVQPGRSLRLSCAASGFTFSNYYMAWVRQAPGKGLEWVATISYDGSSTYYRDSVKGRFTISRDNAKNSLYLQMNSLRAEDTAVYYCARHRGYYYSGAGYFDYWGQGTMVTVSS
VL: DVVLTQTPLSLPVTLGESASISCRSSQSLEYSDGYTYLEWYLQKPGQSPQVLIYGVSNRFSGVPDRFSGSGSGTDFTLKISRVEAEDVGVYYCFQATHDPLTFGQGTKLEIK
B11: humanized Lym2 antibody LV4HV0 (antibody, V domains shown)
VH: EVQLVESGGGVVQPGRSLRLSCAASGFTFSNYYMAWVRQAPGKGLEWVATISYDGSSTYYRDSVKGRFTISRDNAKNSLYLQMNSLRAEDTAVYYCARHRGYYYSGAGYFDYWGQGTMVTVSS
VL: DVVLTQTPLSLPVTLGESASISCRSSQSLEYSDGYTYLEWYLQKPGQSPQVLIYGVSNRFSGVPDRFSGSGSGTDFTLKISRVEPEDVGVYYCFQATHDPLTFGQGTKLEIK
B12: humanized Lym2 antibody LV2cHV4 (antibody, V domains shown)
VH: EVQLVESGGGVVQPGRSMRLSCAASGFTFSNYYMAWVRQAPGKGLEWVATISYDGSSTYYRDSVKGRFTISRDNAKSSLYLQMNSLRAEDTATYYCARHRGYYYSGAGYFDYWGQGVMVTVSS
VL: DVVLTQTPLSLPVTPGESASISCRSSQSLEYSDGYTYLEWYLQKPGQSPQVLIYGVSNRFSGVPDRFSGSGSGTDFTLKISRVEAEDVGVYYCFQATHDPLTFGQGTKLEIK
B13: humanized Lym2 antibody LV2bHV0 (antibody, V domains shown)
VH: EVQLVESGGGVVQPGRSLRLSCAASGFTFSNYYMAWVRQAPGKGLEWVATISYDGSSTYYRDSVKGRFTISRDNAKNSLYLQMNSLRAEDTAVYYCARHRGYYYSGAGYFDYWGQGTMVTVSS
VL: DIVMTQTPLSLPVTLGESASISCRSSQSLEYSDGYTYLEWYLQKPGQSPQVLIYGVSNRFSGVPDRFSGSGSGTDFTLKISRVEPEDVGVYYCFQATHDPLTFGQGTKLEIK
B14: humanized Lym2 antibody LV3aHV0 (antibody, V domains shown)
VH: EVQLVESGGGVVQPGRSLRLSCAASGFTFSNYYMAWVRQAPGKGLEWVATISYDGSSTYYRDSVKGRFTISRDNAKNSLYLQMNSLRAEDTAVYYCARHRGYYYSGAGYFDYWGQGTMVTVSS
VL: DVVLTQTPLSLPVTPGESASISCRSSQSLEYSDGYTYLEWYLQKPGQSPQVLIYGVSNRFSGVPDRFSGSGSGTDFTLKISRVEPEDVGVYYCFQATHDPLTFGQGTKLEIK
B15: humanized Lym2 antibody LV3bHV4 (antibody, V domains shown)
VH: EVQLVESGGGVVQPGRSMRLSCAASGFTFSNYYMAWVRQAPGKGLEWVATISYDGSSTYYRDSVKGRFTISRDNAKSSLYLQMNSLRAEDTATYYCARHRGYYYSGAGYFDYWGQGVMVTVSS
VL: DVVLTQTPLSLPVTLGESASISCRSSQSLEYSDGYTYLEWYLQKPGQSPQVLIYGVSNRFSGVPDRFSGSGSGTDFTLKISRVEAEDVGVYYCFQATHDPLTFGQGTKLEIK
B16: humanized Lym2 antibody LV1HV0 (antibody, V domains shown)
VH: EVQLVESGGGVVQPGRSLRLSCAASGFTFSNYYMAWVRQAPGKGLEWVATISYDGSSTYYRDSVKGRFTISRDNAKNSLYLQMNSLRAEDTAVYYCARHRGYYYSGAGYFDYWGQGTMVTVSS
VL: DIVMTQTPLSLPVTLGESASISCRSSQSLEYSDGYTYLEWYLQKPGQSPQVLIYGVSNRFSGVPDRFSGSGSGTDFTLKISRVEAEDVGVYYCFQATHDPLTFGQGTKLEIK
B17: humanized Lym2 antibody LV2cHV0 (antibody, V domains shown)
VH: EVQLVESGGGVVQPGRSLRLSCAASGFTFSNYYMAWVRQAPGKGLEWVATISYDGSSTYYRDSVKGRFTISRDNAKNSLYLQMNSLRAEDTAVYYCARHRGYYYSGAGYFDYWGQGTMVTVSS
VL: DVVLTQTPLSLPVTPGESASISCRSSQSLEYSDGYTYLEWYLQKPGQSPQVLIYGVSNRFSGVPDRFSGSGSGTDFTLKISRVEAEDVGVYYCFQATHDPLTFGQGTKLEIK
B18: humanized Lym2 antibody LV2aHV0 (antibody, V domains shown)
VH: EVQLVESGGGVVQPGRSLRLSCAASGFTFSNYYMAWVRQAPGKGLEWVATISYDGSSTYYRDSVKGRFTISRDNAKNSLYLQMNSLRAEDTAVYYCARHRGYYYSGAGYFDYWGQGTMVTVSS
VL: DIVLTQTPLSLPVTLGESASISCRSSQSLEYSDGYTYLEWYLQKPGQSPQVLIYGVSNRFSGVPDRFSGSGSGTDFTLKISRVEAEDVGVYYCFQATHDPLTFGQGTKLEIK

target: T1, FLAG fusion human CRTH2 (human, UniProt Q9Y5Y4 1-395); assay: flow cytometry on FLAG fusion human CRTH2-expressing 3Y1-B cells; logistic fit of Geomean; ± is the standard error
T1 construct: Expressed on rat 3Y1-B cells; also called human CRTH2 with a C terminal to which a FLAG tag was added; not shown: FLAG tag at the C terminal
T1 sequence: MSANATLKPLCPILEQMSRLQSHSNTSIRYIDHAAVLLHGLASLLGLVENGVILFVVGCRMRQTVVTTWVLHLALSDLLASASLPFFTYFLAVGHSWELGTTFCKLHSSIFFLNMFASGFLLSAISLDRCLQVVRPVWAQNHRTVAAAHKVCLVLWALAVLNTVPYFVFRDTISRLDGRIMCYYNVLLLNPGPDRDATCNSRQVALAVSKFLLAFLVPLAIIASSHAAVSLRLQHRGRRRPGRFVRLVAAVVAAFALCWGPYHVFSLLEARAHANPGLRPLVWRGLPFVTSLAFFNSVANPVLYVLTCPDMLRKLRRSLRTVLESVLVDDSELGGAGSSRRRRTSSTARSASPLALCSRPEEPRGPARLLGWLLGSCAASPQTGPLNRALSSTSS
Procedure: FLAG fusion human CRTH2-expressing 3Y1-B cells were peeled using a 0.25% trypsin-EDTA (NACALAI TESQUE, Inc.), washed with PBS, and suspended with SM. Next, the cells were seeded in a 96-well plate such that one well has 1×10⁵ cells. Further, chLym2 or each of the humanized Lym2 antibodies was added at each final concentrations of 50000, 12500, 3125, 781, 195, 49, 12, and 3 ng/mL to cause a reaction at 4° C. for 60 minutes.
After the cells were washed with SM, Goat F(ab′)₂ Anti-Human IgG PE (γchain specific) (Southern Biotech Inc.) diluted 500 times with SM was added to cause a reaction at 4° C. for 60 minutes. The cells were washed with SM and resuspended with 50 μL of SM, and the fluorescent intensity was measured by flow cytometry (BD Biosciences, FACS CantoII).
The data was analyzed by FLowJo 7.65 (Tomy Digital Biology Co., Ltd.), curve fitting of the Geomean value in each concentration was performed using a Logistic curve, and the 50% effective concentration (EC₅₀) value of the binding of chLym2 and each humanized Lym2 antibody and the standard error (SE) value thereof were calculated using R language (Ver. 3.02) which is a language for statistical analysis.

**Q.** How did the EC50 turn out when B1 was run?
**A.** 0.55 µg/mL and 0.87 µg/mL

**Q.** How did the EC50 turn out when B2 was run?
**A.** 0.76 µg/mL

**Q.** With B3 as the binder, how does the EC50 read?
**A.** 0.58 µg/mL and 0.67 µg/mL

**Q.** B4 was tested. Which EC50 did it give?
**A.** 0.58 µg/mL

**Q.** For B5, which EC50 is on record?
**A.** 0.72 µg/mL

**Q.** How did the EC50 turn out when B6 was run?
**A.** 0.69 µg/mL

**Q.** How did the EC50 turn out when B7 was run?
**A.** 0.65 µg/mL

**Q.** With B8 as the binder, how does the EC50 read?
**A.** 0.59 µg/mL

**Q.** Which EC50 does the source give for B9 here?
**A.** 0.51 µg/mL

**Q.** B10 was tested. Which EC50 did it give?
**A.** 0.81 µg/mL

**Q.** Which EC50 does the source give for B11 here?
**A.** 0.74 µg/mL

**Q.** How did the EC50 turn out when B12 was run?
**A.** 0.54 µg/mL

**Q.** B13 was tested. Which EC50 did it give?
**A.** 0.67 µg/mL

**Q.** How did the EC50 turn out when B14 was run?
**A.** 0.7 µg/mL

**Q.** B15 was tested. Which EC50 did it give?
**A.** 0.53 µg/mL

**Q.** How did the EC50 turn out when B16 was run?
**A.** 0.69 µg/mL

**Q.** With B17 as the binder, how does the EC50 read?
**A.** 0.68 µg/mL

**Q.** For B18, which EC50 is on record?
**A.** 0.66 µg/mL
